Reference: US20070014785A1

Target: human CD20 (entire coding sequence, expressed on the cell surface after LTR-CD20-LTR retroviral transduction) (human) (UniProt P11836)
Experiment: cell-based or functional assay

Chain of UniProt P11836 (P11836 whole entry): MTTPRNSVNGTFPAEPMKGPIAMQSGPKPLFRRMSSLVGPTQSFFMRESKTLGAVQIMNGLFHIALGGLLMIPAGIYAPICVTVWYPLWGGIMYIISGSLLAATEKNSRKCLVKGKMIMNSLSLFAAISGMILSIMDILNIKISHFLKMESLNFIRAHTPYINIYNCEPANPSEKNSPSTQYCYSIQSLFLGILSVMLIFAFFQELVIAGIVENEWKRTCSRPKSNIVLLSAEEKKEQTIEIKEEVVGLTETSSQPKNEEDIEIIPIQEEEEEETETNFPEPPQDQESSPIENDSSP

Rituximab (Roche), humanised monoclonal antibody against CD20
% specific lysis, Rituximab alone (Donor 1, 30% CD3/CD20+ lymphocytes): 0% | % specific lysis, Rituximab alone (Donor 2, 23% CD3/CD20+ lymphocytes): 0% | % specific lysis, Rituximab alone (Donor 3, 15% CD3/CD20+ lymphocytes): 0% | % specific lysis, Rituximab plus complement (Donor 1, 30% CD3/CD20+ lymphocytes): 33% | % specific lysis, Rituximab plus complement (Donor 2, 23% CD3/CD20+ lymphocytes): 35% | % specific lysis, Rituximab plus complement (Donor 3, 15% CD3/CD20+ lymphocytes): 18% | death of the CD3/CD20+ cells after one hour exposure (complement-dependent cytotoxicity): 90%
